Measurements taken from patent US20230071765A1, “COMPOSITIONS HAVING THIOREDOXIN ACTIVITY AND RELATED METHODS” (ORPRO THERAPEUTICS, INC., priority 2020, published 2023).

Test system: primary HBE cells from CF donors homozygous for F508del
Experiment: μOCT of MCT rate and CBF in CF primary HBE cells
Assay type: cell-based, human
Text: Primary human bronchial epithelial (HBE) cells were derived from lung explants from healthy failed donors and CF patients homozygous for F508del CFTR. […]
One-micron resolution spectral domain μOCT was used to obtain measurements of mucociliary transport (MCT) rate and ciliary beat frequency (CBF) in HBE monolayers and of MCT rate of sputum ex vivo. This first-in-kind, high-speed (40 frames per second, 512 lines per frame) microscopic reflectance imaging modality enables simultaneous anatomic imaging in cell cultures and intact tissues that readily distinguishes the properties of CF compared to normal epithelia (Liu L, Chu K K, Houser G H, Diephuis B J, Li Y, Wilsterman E J, Shastry S, Dierksen G, Birket S E, Mazur M, et al., 2013, Method for quantitative study of airway functional microanatomy using micro-optical coherence tomography, PLoS One 8(1):e54473; Tuggle K L, Birket S E, Cui X, Hong J, Warren J, Reid L, Chambers A, Ji D, Gamber K, Chu K K, et al., 2014, Characterization of defects in ion transport and tissue development in Cystic Fibrosis Transmembrane Conductance Regulator (CFTR)-knockout rats. […] Images were captured, and MCT rate and CBF calculated, as described in the preceding references.

B1: ORP100S: thioredoxin with monothiol active site, Cys35 and non-active Cys 62, 69 and 73 substituted with serine (SEQ ID NO:29) (protein)
chain: MVKQIESKTAFQEALDAAGDKLVVVDFSATWCGPSKMIKPFFHSLSEKYSNVIFLEVDVDDSQDVASESEVKSMPTFQFFKKGQKVGEFSGANKEKLEATINELV
modifications: synthetic peptide motif
CBF (3 hrs post treatment): no meaningful differences
MCT rate (3 hrs post-treatment, ORP100S 1-3 mM, DTT 1.6 mM, PBS 7.30±2.9, mean±SE): 54.73±15.3 mm/min
